# According to article doi:10.1101/2020.03.22.001966:
# Legend:
# Experiment in all cases: SEC
# [1] = molecular target: Acinetobacter baumannii BigR (Acinetobacter baumannii)
# [2] = molecular target: C9S SqrR, reduced (Rhodobacter capsulatus)
# [3] = molecular target: C9S/C41S SqrR (Rhodobacter capsulatus)
# [4] = molecular target: C9S/C107S SqrR (Rhodobacter capsulatus)
# [5] = molecular target: wild-type SqrR (sulfide quinone reductase repressor), reduced (Rhodobacter capsulatus)
substance,measurement,setting,value
Acinetobacter baumannii BigR (natural protein),stoichiometry N,[1],2
"C9S SqrR, reduced (natural protein)",stoichiometry N,[2],2
C9S/C41S SqrR (natural protein),stoichiometry N,[3],2
C9S/C107S SqrR (natural protein),stoichiometry N,[4],2
"wild-type SqrR (sulfide quinone reductase repressor), reduced (natural protein)",stoichiometry N,[5],2
